# Laboratory results from patent US5066590A, “Superoxide dismutase combined with a poly(alkylene oxide)” (Ajinomoto Co., Inc., priority 1985, dated 1991).
# Legend:
# [1] = Survival of SOD activity in the blood circulation (plasma SOD activity after i.v. infusion); format: in vivo, Wister rats; conditions: for Half life (half survival time of SOD activity in the circulation) / Time to 30% residual activity: 20 mg SOD content/kg, femoral vein, rats
# Description: For each stabilized SOD obtained in the Examples, the survival time in the blood circulation was measured as follows. Four Wister rats, seven weeks old and weighing 249 to 277 g, were used for each sample. The rats were infused with 20 mg of the sample (20 mg SOD content for the modified SOD; 5 mg per rat) dissolved in a saline solution (0.5 ml per rat) per kg of body weight through the femoral vein, and samples of blood, each 0.2 ml, were withdrawn 5, 15 and 30 minutes and 1, 2, 4, 8, 24 and 48 hours after the injection. Each blood sample was centrifuged, and the SOD activity of the plasma was determined by the method of J. M. McCord et al (J. Biol. Chem.,.244, No. 22, 6049-55, 1969).
# [2] = test system: superoxide dismutase; experiment: SOD enzyme activity by the method of McCord et al (residual activity vs starting SOD); format: biochemical, bovine; human
# Description: (§1) The residual activity was obtained by the following method.
# (§2) The concentration of each enzyme was obtained by the absorption method as mentioned above, and the residual activity was calculated from a comparison in activity after the reaction.
# [3] = target: superoxide dismutase (Bos taurus, UniProt P00442); experiment: as above; format: biochemical, bovine; human
# superoxide dismutase (Bos taurus, UniProt P00442), sequence (P00442 2-152 limits assumed): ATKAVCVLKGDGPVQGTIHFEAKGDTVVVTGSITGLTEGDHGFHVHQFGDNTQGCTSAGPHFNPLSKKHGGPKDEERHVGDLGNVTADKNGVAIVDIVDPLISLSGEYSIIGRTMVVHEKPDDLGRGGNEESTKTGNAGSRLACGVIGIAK
# Description: as §1, §2
# [4] = test system: Lewis-lung tumor; experiment: Prevention of tumor metastasis (Lewis-lung tumor implanted in mice); format: in vivo, C57BL-6 mice; conditions: for Inhibition ratio (%) (number of tumor colonies) / Inhibition ratio (%) (weight of lung tumor) / Mean number of tumor colonies / Mean weight of lung tumor: 2 mg/kg i.v.
# Description: 10^6 cells of Lewis-lung tumor were implanted onto the foot of a number of C57BL-6 mice, and the implanted tumor was removed at seventh day after the transplantation (n=7).
# The modified SOD (m-SOD) obtained in Example 1 was dissolved in a saline solution (5 mg by SOD content in 1 ml saline solution). To the mice, the modified SOD solution (2 mg by SOD content per kg) was injected intravenously once a day for 5 days from the seventh day or fourteenth day after the transplantation.
# On the 22nd day after the transplantation, the lungs were taken out and the number of colonies of metastasizing cells was determined. The inhibition of the metastasis was evaluated by the decrease of the number of colonies and the weight of metastasizing lung tumor.
# [5] = test system: superoxide dismutase; conditions: starting material as purchased; cited from earlier work
Substance,Half life (half survival time of SOD activity in the circulation) [1],Time to 30% residual activity [1],activity in the blood circulation with time ([1]; FIG. 5),"Residual enzyme activity (%) ([2]; Table 1, stabilized SOD of Examples)","residual activity ([2]; isolated stabilized SOD, text of Examples)",total activity ([3]; freeze-dried stabilized SOD),total activity ([3]; reaction mixture after completion of the reaction),"residual activity ([3]; reaction mixture after completion of the reaction, in comparison with the original SOD)",Inhibition ratio (%) (number of tumor colonies) ([4]; 5 injections after 7th day),Inhibition ratio (%) (weight of lung tumor) ([4]; 5 injections after 7th day),Mean number of tumor colonies ([4]; 5 injections after 7th day),Mean weight of lung tumor ([4]; 5 injections after 7th day),Inhibition ratio (%) (number of tumor colonies) ([4]; 5 injections after 14th day),Inhibition ratio (%) (weight of lung tumor) ([4]; 5 injections after 14th day),Mean number of tumor colonies ([4]; 5 injections after 14th day),Mean weight of lung tumor ([4]; 5 injections after 14th day),"number of colonies as compared to the non-treated mice ([4]; ""decreased below 40%"")","weight of tumor as compared to the non-treated mice ([4]; ""decreased below 40%"")",specific activity of purchased SOD [5]
"Example 1: bovine SOD amide-linked to α-carboxymethyl, ω-carboxymethoxy polyoxyethylene (molecular weight about 4000), 2.4 molecules per enzyme",240 min,10 h,"rapidly reduces after a few hours from the adminstration, and then it reduces slowly",95%,95%,236000 units,285000 units,95±5%,65%,66%,10.5,0.15 g,72%,77%,8.4,0.10 g,below 40%,below 40%,–
"bovine SOD: Superoxide dismutase derived from a bovine blood produced by Toyobo Co., Japan",6 min,0.15 h,–,–,–,–,–,–,–,–,–,–,–,–,–,–,–,–,3000 units/mg
human SOD: SOD derived from human erythrocyte purchased from Sigma Co.,6 min,0.15 h,–,–,–,–,–,–,–,–,–,–,–,–,–,–,–,–,2300 units/mg
